Each block holds one molecule with its values, some of them ahead of it.
Key:
[1] = target: Thy-1 on the surface of primary rat cortical neurons (rat (endogenous in primary cortical neurons)) (UniProt P01830)
[2] = target: Thy-1 on the surface of primary rat cortical neurons (rat (endogenous in primary cortical neurons)) (UniProt P01830); remark: listed apart in the source
[3] = target: Thy-1 on CAD cells (mouse (endogenous in CAD cells)) (UniProt P01831)
[4] = target: Thy-1 on the surface of primary rat cortical neurons (rat (endogenous in primary cortical neurons)) (UniProt P01830); remark: listed apart in the source
[5] = target: αVβ3 integrin on the cell surface of DITNC1 astrocytes (UniProt Q8R2H2)
Chain of UniProt Q8R2H2 (Q8R2H2 whole entry, looked up): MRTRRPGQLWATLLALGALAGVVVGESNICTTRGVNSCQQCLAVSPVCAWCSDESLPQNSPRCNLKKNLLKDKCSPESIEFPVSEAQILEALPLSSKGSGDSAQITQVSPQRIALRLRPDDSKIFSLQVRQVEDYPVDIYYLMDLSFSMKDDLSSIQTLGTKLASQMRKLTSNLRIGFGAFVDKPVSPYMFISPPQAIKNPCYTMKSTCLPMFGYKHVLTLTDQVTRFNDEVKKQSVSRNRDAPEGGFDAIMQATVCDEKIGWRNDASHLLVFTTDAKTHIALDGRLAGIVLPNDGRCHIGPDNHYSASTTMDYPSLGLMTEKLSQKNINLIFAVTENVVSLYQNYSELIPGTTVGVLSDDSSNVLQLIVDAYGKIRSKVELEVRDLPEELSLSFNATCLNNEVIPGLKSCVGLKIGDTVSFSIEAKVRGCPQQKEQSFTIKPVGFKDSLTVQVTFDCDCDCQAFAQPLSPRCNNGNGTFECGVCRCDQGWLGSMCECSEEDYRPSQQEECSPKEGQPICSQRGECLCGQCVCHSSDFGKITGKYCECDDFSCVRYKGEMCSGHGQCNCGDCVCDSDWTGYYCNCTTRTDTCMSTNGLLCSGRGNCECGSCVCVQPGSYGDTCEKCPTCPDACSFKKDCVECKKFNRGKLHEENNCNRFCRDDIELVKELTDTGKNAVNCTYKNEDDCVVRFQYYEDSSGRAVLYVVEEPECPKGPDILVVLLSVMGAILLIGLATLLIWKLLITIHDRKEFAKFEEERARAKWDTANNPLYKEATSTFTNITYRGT

Chain of UniProt P01830 (P01830 20-130): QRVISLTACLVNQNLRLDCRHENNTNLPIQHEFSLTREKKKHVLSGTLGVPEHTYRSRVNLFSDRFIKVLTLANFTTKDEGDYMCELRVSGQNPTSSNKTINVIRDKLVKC

- percentage of Thy-1 positive axonal terminals collapsed in mature cortical neurons (12–15 days in vitro) treated with αVβ3-Fc-containing supernatants [1]: 55%
- percentage of axonal terminals collapsed in mature cortical neurons treated with αVβ3-Fc cross-linked with Protein A [2]: 80%
- length of processes of CAD cells on αVβ3-Fc-coated plates in comparison to controls [3]: 40 % decrease
- length of dendrites of cortical neurons (4–5 days in culture) treated with αVβ3-Fc-containing supernatant for 72 hours, compared with non-treated neurons; prevented by PI-PLC pre-treatment [4]: 50 % decrease
Molecule: αVβ3-Fc fusion protein (from UniProt P06756 31-1048; P05106 27-718)

- percentage of differentiated CAD cells (processes ≥15 µm) seeded over a monolayer of DITNC1 astrocytes, against ∼80% on plastic [5]: 35%
B1: Thy-1 on CAD cells (natural protein)
chain: QKVTSLTACLVNQNLRLDCRHENNTKDNSIQHEFSLTREKRKHVLSGTLGIPEHTYRSRVTLSNQPYIKVLTLANFTTKDEGDYFCELQVSGANPMSSNKSISVYRDKLVKC
modifications: GPI anchor

— article PMC3316703
